Measured values: the Immune Epitope Database (IEDB)

Key:
[1] = target: HLA-B*07:02; assay: IEDB peptide-MHC binding, purified MHC/direct/fluorescence; filed as Kd, often an IC50 or EC50 that approximates it; ≥ and ≤ were set here for values at or beyond the usual limits of such assays; settings: source organism: Mycobacterium tuberculosis str. Haarlem
[2] = target: HLA-B*35:01; assay: IEDB peptide-MHC binding, purified MHC/competitive/fluorescence; filed as Kd, often an IC50 or EC50 that approximates it; ≥ and ≤ were set here for values at or beyond the usual limits of such assays; settings: source organism: Mycobacterium tuberculosis variant bovis BCG str. Pasteur 1173P2
[3] = target: HLA-B*08:01; assay: as above; settings: source organism: Escherichia coli O139:H28 str. E24377A
[4] = target: HLA-A*68:02; assay: IEDB peptide-MHC binding, purified MHC/direct/fluorescence; filed as Kd, often an IC50 or EC50 that approximates it; ≥ and ≤ were set here for values at or beyond the usual limits of such assays
[5] = target: HLA-A*02:19; assay: as above
[6] = target: HLA-A*29:02; assay: as above
[7] = target: HLA-A*24:03; assay: as above
[8] = target: HLA-A*02:12; assay: as above
[9] = target: HLA-A*03:01; assay: as above
[10] = target: HLA-A*02:03; assay: as above
[11] = target: HLA-A*02:16; assay: as above
[12] = target: HLA-A*02:11; assay: as above
[13] = target: HLA-A*23:01; assay: as above
[14] = target: HLA-A*02:01; assay: IEDB peptide-MHC binding, purified MHC/competitive/fluorescence; filed as Kd, often an IC50 or EC50 that approximates it; ≥ and ≤ were set here for values at or beyond the usual limits of such assays
[15] = target: HLA-B*46:01; assay: as above
[16] = target: HLA-B*57:01; assay: as above
[17] = target: HLA-B*15:01; assay: as above; settings: source organism: Zaire ebolavirus
[18] = target: HLA-B*51:01; assay: as above
[19] = target: HLA-B*27:03; assay: as above
[20] = target: HLA-A*26:01; assay: as above
[21] = target: HLA-A*69:01; assay: as above
[22] = target: HLA-A*31:01; assay: as above; settings: source organism: Zaire ebolavirus
[23] = target: HLA-B*15:17; assay: as above; settings: source organism: Zaire ebolavirus
[24] = target: HLA-B*39:01; assay: as above
[25] = target: HLA-B*18:01; assay: as above
[26] = target: HLA-A*01:01; assay: IEDB peptide-MHC binding, purified MHC/direct/fluorescence; filed as Kd, often an IC50 or EC50 that approximates it; ≥ and ≤ were set here for values at or beyond the usual limits of such assays
[27] = source organism: Ravn virus - Ravn, Kenya, 1987
[28] = source organism: Zaire ebolavirus
[29] = source organism: Orthohantavirus sinnombreense

Sequence GPGEVSAAM has a Kd [1] of 0.146 µM and a Kd [2] of 0.0039 µM.

For HPKRTERAG, the Kd [3] was no less than 20 µM.

With HSGFIYFGK the Kd [4, 27] was no less than 20 µM, the Kd [5, 27] was no less than 20 µM and the Kd [6, 27] was no less than 20 µM. For the same sequence, the Kd [7, 27] was no less than 20 µM, the Kd [8, 27] was no less than 20 µM and the Kd ([9]; source organism: Sudan ebolavirus - Uganda (2000)) was 3.47 µM. For the same sequence, the Kd [10, 27] was no less than 20 µM, the Kd [11, 27] was no less than 20 µM and the Kd [12, 27] was no less than 20 µM. It also gave a Kd [13, 27] of no less than 20 µM, a Kd [14, 28] of no less than 20 µM and a Kd [15, 28] of no less than 20 µM. It also gave a Kd [16, 28] of no less than 20 µM, a Kd [17] of no less than 20 µM and a Kd [18, 28] of no less than 20 µM. It also gave a Kd [19, 28] of no less than 20 µM, a Kd [20, 28] of no less than 20 µM and a Kd [21, 28] of no less than 20 µM. The Kd [22] was 0.797 µM, the Kd [23] was no less than 20 µM and the Kd [24, 28] was no less than 20 µM. For the same sequence, the Kd [25, 28] was no less than 20 µM.

For HTVGLGQGY, the Kd ([5]; source organism: Choclo virus) was no less than 20 µM, the Kd ([7]; source organism: Choclo virus) was no less than 20 µM and the Kd ([8]; source organism: Choclo virus) was no less than 20 µM. For the same sequence, the Kd ([9]; source organism: Choclo virus) was no less than 20 µM, the Kd ([26]; source organism: Orthohantavirus andesense) was no less than 5 µM and the Kd ([10]; source organism: Choclo virus) was no less than 20 µM. For the same sequence, the Kd ([11]; source organism: Choclo virus) was no less than 20 µM, the Kd ([12]; source organism: Choclo virus) was no less than 20 µM and the Kd ([13]; source organism: Choclo virus) was no less than 20 µM. It also gave a Kd [14, 29] of no less than 20 µM, a Kd [15, 29] of no less than 20 µM and a Kd [16, 29] of no less than 20 µM. It also gave a Kd [18, 29] of no less than 20 µM, a Kd [19, 29] of no less than 20 µM and a Kd [20, 29] of 0.0021 µM. For the same sequence, the Kd [21, 29] was no less than 20 µM, the Kd [24, 29] was no less than 20 µM and the Kd [25, 29] was no less than 20 µM.

For QTEPKTSVV, the Kd [4, 28] was no less than 20 µM, the Kd [5, 28] was no less than 20 µM and the Kd [6, 28] was no less than 20 µM. For the same sequence, the Kd [7, 28] was no less than 20 µM, the Kd [8, 28] was no less than 20 µM and the Kd [9, 28] was no less than 20 µM. For the same sequence, the Kd ([26]; source organism: Ebola virus - Eckron (Zaire, 1976)) was 16.4 µM, the Kd [10, 28] was no less than 20 µM and the Kd [12, 28] was no less than 20 µM. It also gave a Kd [13, 28] of no less than 20 µM, a Kd [14, 28] of no less than 20 µM and a Kd [15, 28] of no less than 20 µM. The Kd [16, 28] was no less than 20 µM, the Kd [17] was no less than 20 µM and the Kd [18, 28] was no less than 20 µM. It also gave a Kd [19, 28] of no less than 20 µM, a Kd [20, 28] of no less than 20 µM and a Kd [23] of no less than 20 µM. For the same sequence, the Kd [24, 28] was no less than 20 µM and the Kd [25, 28] was no less than 20 µM.
